Assay results from the supplement of paper PMC10724198.
± gives the standard deviation of the averaged measurements.

Assays:
Saccharomyces cerevisiae [1] = test: protein stability index of tFT-peptide fusion (C-terminal peptide) (PSI (0-1 scale)); higher = more stable (slower turnover); details: genetic background: wild type; temperature: 30 C
Saccharomyces cerevisiae [2] = test: as above
Description: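 MPS profiling in S. cerevisiae of the tFT-X12 degron library: putative degron peptides plus stable controls, 12 aa, fused to the C-terminus of a sfGFP-mCherry timer. Cells are FACS-sorted into 8 mCherry/sfGFP bins and deep-sequenced. PSI runs from 0 (unstable) to 1 (stable). Backgrounds are wild type, das1Δ and doa10Δ at 30 °C, and wild type, das1Δ, cdc34-1 and cdc53-1 at 37 °C; 2-3 technical replicates each.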

[3] = genetic background: cdc34-1, temperature: 37 C
[4] = genetic background: cdc53-1, temperature: 37 C
[5] = genetic background: das1 deletion, temperature: 30 C
[6] = genetic background: das1 deletion, temperature: 37 C
[7] = genetic background: doa10 deletion, temperature: 30 C
[8] = genetic background: wild type, temperature: 30 C
[9] = genetic background: wild type, temperature: 37 C
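Note: PSI is a weighted mean of sequencing reads over stability bins, variants kept only with over 10 reads, mCherry proximal and sfGFP distal, peptide attached via GGGS linker.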

PLRVFFLVAFCL
protein stability index (Saccharomyces cerevisiae [1]): 0.383 ± 0.0073
protein stability index (Saccharomyces cerevisiae [2]; [3]): 0.451 ± 0.009
protein stability index (Saccharomyces cerevisiae [2]; [4]): 0.4799 ± 0.0037
protein stability index (Saccharomyces cerevisiae [2]; [5]): 0.372 ± 0.024
protein stability index (Saccharomyces cerevisiae [2]; [6]): 0.535 ± 0.015
protein stability index (Saccharomyces cerevisiae [2]; [7]): 0.318 ± 0.026
protein stability index (Saccharomyces cerevisiae [2]; [8]): 0.326 ± 0.05
protein stability index (Saccharomyces cerevisiae [2]; [9]): 0.471 ± 0.013

PLSNLCRVLTFI
protein stability index (Saccharomyces cerevisiae [1]): 0.4608 ± 0.0029
protein stability index (Saccharomyces cerevisiae [2]; [3]): 0.557 ± 0.078
protein stability index (Saccharomyces cerevisiae [2]; [4]): 0.639 ± 0.0012
protein stability index (Saccharomyces cerevisiae [2]; [5]): 0.575 ± 0.03
protein stability index (Saccharomyces cerevisiae [2]; [6]): 0.6394 ± 0.0024
protein stability index (Saccharomyces cerevisiae [2]; [7]): 0.361 ± 0.0071
protein stability index (Saccharomyces cerevisiae [2]; [8]): 0.369 ± 0.015
protein stability index (Saccharomyces cerevisiae [2]; [9]): 0.526 ± 0.0056

PLSSHIPVHEAR
protein stability index (Saccharomyces cerevisiae [1]): 0.718 ± 0.025
protein stability index (Saccharomyces cerevisiae [2]; [3]): 0.659 ± 0.052
protein stability index (Saccharomyces cerevisiae [2]; [4]): 0.744 ± 0.035
protein stability index (Saccharomyces cerevisiae [2]; [5]): 0.699 ± 0.017
protein stability index (Saccharomyces cerevisiae [2]; [6]): 0.706 ± 0.011
protein stability index (Saccharomyces cerevisiae [2]; [7]): 0.674 ± 0.012
protein stability index (Saccharomyces cerevisiae [2]; [8]): 0.645 ± 0.025
protein stability index (Saccharomyces cerevisiae [2]; [9]): 0.6878 ± 0.0027

PPLTRVPLSISA
protein stability index (Saccharomyces cerevisiae [1]): 0.413 ± 0.052
protein stability index (Saccharomyces cerevisiae [2]; [3]): 0.434 ± 0.0084
protein stability index (Saccharomyces cerevisiae [2]; [4]): 0.465 ± 0.016
protein stability index (Saccharomyces cerevisiae [2]; [5]): 0.292 ± 0.04
protein stability index (Saccharomyces cerevisiae [2]; [6]): 0.492 ± 0.012
protein stability index (Saccharomyces cerevisiae [2]; [7]): 0.267 ± 0.0075
protein stability index (Saccharomyces cerevisiae [2]; [8]): 0.305 ± 0.034
protein stability index (Saccharomyces cerevisiae [2]; [9]): 0.46 ± 0.005

PPPPLATTSAPL
protein stability index (Saccharomyces cerevisiae [1]): 0.719 ± 0.04
protein stability index (Saccharomyces cerevisiae [2]; [3]): 0.687 ± 0.046
protein stability index (Saccharomyces cerevisiae [2]; [4]): 0.74266 ± 0.0006
protein stability index (Saccharomyces cerevisiae [2]; [5]): 0.661 ± 0.0092
protein stability index (Saccharomyces cerevisiae [2]; [6]): 0.7118 ± 0.0031
protein stability index (Saccharomyces cerevisiae [2]; [7]): 0.668 ± 0.029
protein stability index (Saccharomyces cerevisiae [2]; [8]): 0.665 ± 0.015
protein stability index (Saccharomyces cerevisiae [2]; [9]): 0.6919 ± 0.0013

PPSLFLLLKVFF
protein stability index (Saccharomyces cerevisiae [1]): 0.3254 ± 0.0024
protein stability index (Saccharomyces cerevisiae [2]; [3]): 0.321 ± 0.0034
protein stability index (Saccharomyces cerevisiae [2]; [4]): 0.362 ± 0.012
protein stability index (Saccharomyces cerevisiae [2]; [5]): 0.279 ± 0.037
protein stability index (Saccharomyces cerevisiae [2]; [6]): 0.458 ± 0.005
protein stability index (Saccharomyces cerevisiae [2]; [7]): 0.268 ± 0.0069
protein stability index (Saccharomyces cerevisiae [2]; [8]): 0.223 ± 0.023
protein stability index (Saccharomyces cerevisiae [2]; [9]): 0.357 ± 0.0065

PPSPPPLSASVP
protein stability index (Saccharomyces cerevisiae [1]): 0.578 ± 0.14
protein stability index (Saccharomyces cerevisiae [2]; [3]): 0.661 ± 0.04
protein stability index (Saccharomyces cerevisiae [2]; [4]): 0.698 ± 0.025
protein stability index (Saccharomyces cerevisiae [2]; [5]): 0.667 ± 0.053
protein stability index (Saccharomyces cerevisiae [2]; [6]): 0.698 ± 0.02
protein stability index (Saccharomyces cerevisiae [2]; [7]): 0.677 ± 0.024
protein stability index (Saccharomyces cerevisiae [2]; [8]): 0.669 ± 0.015
protein stability index (Saccharomyces cerevisiae [2]; [9]): 0.7 ± 0.0078

PRHLTPPPAPSA
protein stability index (Saccharomyces cerevisiae [1]): 0.642 ± 0.24
protein stability index (Saccharomyces cerevisiae [2]; [3]): 0.704 ± 0.059
protein stability index (Saccharomyces cerevisiae [2]; [4]): 0.721 ± 0.024
protein stability index (Saccharomyces cerevisiae [2]; [5]): 0.675 ± 0.022
protein stability index (Saccharomyces cerevisiae [2]; [6]): 0.708 ± 0.013
protein stability index (Saccharomyces cerevisiae [2]; [7]): 0.66 ± 0.038
protein stability index (Saccharomyces cerevisiae [2]; [8]): 0.659 ± 0.022
protein stability index (Saccharomyces cerevisiae [2]; [9]): 0.6742 ± 0.0042

PRHVLWLRRLLF
protein stability index (Saccharomyces cerevisiae [1]): 0.334 ± 0.0067
protein stability index (Saccharomyces cerevisiae [2]; [3]): 0.68 ± 0.052
protein stability index (Saccharomyces cerevisiae [2]; [4]): 0.7289 ± 0.0067
protein stability index (Saccharomyces cerevisiae [2]; [5]): 0.622 ± 0.02
protein stability index (Saccharomyces cerevisiae [2]; [6]): 0.782 ± 0.029
protein stability index (Saccharomyces cerevisiae [2]; [7]): 0.2 ± 0.016
protein stability index (Saccharomyces cerevisiae [2]; [8]): 0.235 ± 0.024
protein stability index (Saccharomyces cerevisiae [2]; [9]): 0.5371 ± 0.0031

PRLRPQTVAFLS
protein stability index (Saccharomyces cerevisiae [1]): 0.2648 ± 0.0012
protein stability index (Saccharomyces cerevisiae [2]; [3]): 0.68 ± 0.038
protein stability index (Saccharomyces cerevisiae [2]; [4]): 0.732 ± 0.013
protein stability index (Saccharomyces cerevisiae [2]; [5]): 0.651 ± 0.011
protein stability index (Saccharomyces cerevisiae [2]; [6]): 0.721 ± 0.013
protein stability index (Saccharomyces cerevisiae [2]; [7]): 0.28 ± 0.02
protein stability index (Saccharomyces cerevisiae [2]; [8]): 0.313 ± 0.016
protein stability index (Saccharomyces cerevisiae [2]; [9]): 0.5179 ± 0.001
